Assay [1] deals with T1, Xatr (endogenous Xenopus ATR in egg extracts) (Xenopus laevis, UniProt Q9DE14 1-2654).
T1 construct: Endogenous protein of whole or mock-depleted egg extracts, where endogenous Xatrip is also present
The assay can be described thus: GST pull-down from Xenopus egg extracts, immunoblot (FIG. 4A). The procedure:
The extracts were filtered through a G25 Sephadex column to remove endogenous glutathione and incubated with glutathione agarose beads. The beads were isolated and immunoblotted for Xatr (top) and Xatrip (bottom). In FIG. 4B, egg extracts (lane 1) were immunodepleted with control (lane 2) or anti-Xatrip antibodies (lanes 3 and 4). For lane 4, recombinant XatripΔN222-FLAG was added back later. Extracts were immunoblotted with anti-Xatr (top) and anti-Xatrip antibodies (bottom). […] Binding of Xatr to glutathione beads was determined by immunoblotting as in FIG. 4A. In FIG. 4D, Xatr was immunoprecipitated from mock-depleted (lanes 1 and 2) and Xatrip-depleted extracts (lanes 3 and 4). Twice as much Xatrip-depleted extract was immunoprecipitated due to its reduced content of Xatr. […] Samples were also immunoblotted for Xatr (top) and Xatrip (middle).
On the technique in general: A western blot detects proteins with antibodies after separation by electrophoresis.

Assay [2] addresses T1, Xatr (endogenous Xenopus ATR in egg …). The assay can be described thus: GST pull-down from Xenopus egg extracts, immunoblot.

T1 sequence (Q9DE14 whole entry): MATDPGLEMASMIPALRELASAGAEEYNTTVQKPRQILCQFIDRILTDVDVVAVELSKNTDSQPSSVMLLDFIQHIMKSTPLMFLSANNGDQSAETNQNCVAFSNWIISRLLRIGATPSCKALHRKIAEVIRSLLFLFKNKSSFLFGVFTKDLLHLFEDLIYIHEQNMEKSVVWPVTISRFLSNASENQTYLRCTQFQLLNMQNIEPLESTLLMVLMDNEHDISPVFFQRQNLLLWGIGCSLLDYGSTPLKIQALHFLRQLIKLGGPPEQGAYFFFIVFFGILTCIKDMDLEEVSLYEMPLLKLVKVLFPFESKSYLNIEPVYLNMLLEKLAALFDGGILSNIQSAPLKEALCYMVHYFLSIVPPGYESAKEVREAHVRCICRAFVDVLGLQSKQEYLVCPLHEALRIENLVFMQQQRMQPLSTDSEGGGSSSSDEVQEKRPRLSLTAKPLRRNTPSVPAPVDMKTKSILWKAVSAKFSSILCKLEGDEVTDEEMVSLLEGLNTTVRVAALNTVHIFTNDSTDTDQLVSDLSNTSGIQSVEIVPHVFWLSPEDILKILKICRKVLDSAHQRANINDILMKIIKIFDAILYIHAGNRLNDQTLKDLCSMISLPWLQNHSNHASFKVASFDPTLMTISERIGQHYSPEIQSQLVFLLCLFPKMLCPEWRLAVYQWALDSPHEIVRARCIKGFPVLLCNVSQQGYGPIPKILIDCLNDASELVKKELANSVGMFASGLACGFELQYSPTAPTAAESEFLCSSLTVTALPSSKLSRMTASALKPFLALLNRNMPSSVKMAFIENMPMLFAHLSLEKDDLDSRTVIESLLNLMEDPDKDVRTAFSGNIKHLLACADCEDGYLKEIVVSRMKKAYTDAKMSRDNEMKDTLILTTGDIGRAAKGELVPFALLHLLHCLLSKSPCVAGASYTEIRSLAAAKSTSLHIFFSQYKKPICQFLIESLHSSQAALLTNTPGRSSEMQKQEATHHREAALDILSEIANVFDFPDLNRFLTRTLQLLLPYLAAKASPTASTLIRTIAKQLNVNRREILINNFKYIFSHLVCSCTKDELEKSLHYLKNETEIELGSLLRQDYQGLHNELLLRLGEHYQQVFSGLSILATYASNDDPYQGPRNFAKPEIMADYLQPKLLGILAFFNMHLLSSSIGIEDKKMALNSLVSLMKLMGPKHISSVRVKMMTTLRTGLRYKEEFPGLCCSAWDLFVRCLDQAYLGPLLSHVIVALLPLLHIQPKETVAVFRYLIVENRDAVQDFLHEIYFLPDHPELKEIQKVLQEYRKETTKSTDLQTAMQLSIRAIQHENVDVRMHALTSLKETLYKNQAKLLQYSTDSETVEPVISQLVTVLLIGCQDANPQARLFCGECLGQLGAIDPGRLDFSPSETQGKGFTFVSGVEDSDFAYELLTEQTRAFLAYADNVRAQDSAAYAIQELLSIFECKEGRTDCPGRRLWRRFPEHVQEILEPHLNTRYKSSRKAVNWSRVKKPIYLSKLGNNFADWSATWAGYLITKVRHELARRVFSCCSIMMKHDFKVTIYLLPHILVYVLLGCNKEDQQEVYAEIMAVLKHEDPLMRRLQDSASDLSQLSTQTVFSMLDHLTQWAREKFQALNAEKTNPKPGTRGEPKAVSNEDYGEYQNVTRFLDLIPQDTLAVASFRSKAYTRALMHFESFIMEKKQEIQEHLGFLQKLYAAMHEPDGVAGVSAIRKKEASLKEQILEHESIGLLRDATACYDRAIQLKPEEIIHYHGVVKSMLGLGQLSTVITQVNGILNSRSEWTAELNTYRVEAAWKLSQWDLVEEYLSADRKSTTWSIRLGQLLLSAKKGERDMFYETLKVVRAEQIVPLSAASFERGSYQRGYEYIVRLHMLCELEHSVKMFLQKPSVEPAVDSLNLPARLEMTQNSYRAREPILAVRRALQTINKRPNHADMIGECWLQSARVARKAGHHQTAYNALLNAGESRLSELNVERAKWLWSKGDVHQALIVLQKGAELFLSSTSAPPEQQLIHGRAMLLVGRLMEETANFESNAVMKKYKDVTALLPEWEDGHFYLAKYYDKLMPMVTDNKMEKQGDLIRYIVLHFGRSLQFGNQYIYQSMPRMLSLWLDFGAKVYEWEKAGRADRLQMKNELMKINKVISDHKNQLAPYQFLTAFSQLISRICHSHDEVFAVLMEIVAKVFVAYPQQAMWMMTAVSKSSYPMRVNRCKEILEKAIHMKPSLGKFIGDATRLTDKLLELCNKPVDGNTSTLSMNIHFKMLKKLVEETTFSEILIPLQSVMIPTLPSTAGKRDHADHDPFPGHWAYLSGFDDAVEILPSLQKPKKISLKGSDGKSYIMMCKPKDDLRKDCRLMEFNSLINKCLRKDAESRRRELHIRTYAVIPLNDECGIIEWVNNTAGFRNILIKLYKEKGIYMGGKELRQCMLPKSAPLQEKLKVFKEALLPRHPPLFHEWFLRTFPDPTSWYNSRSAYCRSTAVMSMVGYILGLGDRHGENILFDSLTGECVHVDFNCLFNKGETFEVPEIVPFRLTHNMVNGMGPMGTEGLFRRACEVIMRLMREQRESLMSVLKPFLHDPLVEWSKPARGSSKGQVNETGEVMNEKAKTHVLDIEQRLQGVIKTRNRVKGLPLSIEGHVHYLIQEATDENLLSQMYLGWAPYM

B1: GST-XtopBP1 (1197-1513) (other)
chain: EFEPKSAMRTPVIENNLQSPTKPDHLTPTPQAPSIAFPLANPPVAPQPREKPVQPFSKEETLKERRFQLSSLDPQERIDYSQLIEELGGVVIEKQCFDPSCTHIVVGHPLRNEKYLASMAAGKWVLHRSYLEACRAAKRFIQEEDYEWGSISILSAVTNINPQQRMLAEAAMRWRKKLQGIKQNMGIAEGAFSGWKVILNVDQTKEPGFKRLLQSGGAKVFAGHSSPLFKEASHLFADFSKLKPDEPRVNVAEAAAQGVNCLKPEYIADYLMKELPPPMNNYCLPDAIPYVRVTGTGLSRKRKTSGDVSDVKRSRHY
notes: BRCT-containing fragment; not shown: glutathione-S-transferase (GST) fusion partner
Take B1: the binding result in assay [1] was “no binding”.

B2: GST-XtopBP1 (333-646) (other)
chain: MASRLDPPADTLENLDISSLQAPDDLLDGCRIYLCGFGGRKLDKLRKLINNGGGVRFNQLTGDVTHIIVGETDEELKQFLNKTQHRPYVLTVKWLLDSFAKGHLQPEEIYFHSSYQQTEMPSPFEPAINLTANKMSSTRGPLNHTRNHQADEDLLSQYTENNSTLIEDEHPKTSNTNSISQMSMHEDMTTCTSQSGLADTSTIIEGGLFSRKQFMVLGFLEEDEACIIDIIKKSAGKVLSSQKRAIADYAVVPLLGCEVESTVGEVVTNAWLGMCIEQEKLLDPHSNALFTPVPFLEGSTPLRECVLSVSQFMG
notes: as for B1
Turning to B2, in assay [2], the binding result is “no binding”.

B3: GST-XtopBP1 (623-984) (other)
chain: TPVPFLEGSTPLRECVLSVSQFMGAERDSLVYLAGLLGAKVQEFFVRKANPKKGMFASTHLVLKDAEGSKYEAAKKWNLPAVTMNWLLQCARTGRKADEDSYLVDNVPEEDKDESFISQTYKPQAIRLSMHAPCHLENHPEALTKAAVTPLDMNRFKSKAFQSVISQHNKNPQTSGGESKVLQREPSLHLDTPSKFLSKDKLFKPSFDVKDALAALETPGGPNQKNRTQSTPLSEVIGRNLQLAIANSTRQTAAVTASPQLKAAEKKEFDNSKLLINVVICVSKKLIKKQGELNGIAASLGAEYRWCFDESVTHFIYHGRQNDMSREYKSVKERSGIYIVSEHWLFACSEQQKRVPEALYPH
notes: BRCT-containing fragment; also called GST fusion of the 623-984 segment from XtopBP1; not shown: glutathione-S-transferase (GST) fusion partner
For the molecule B3, the binding result in assay [2] is “no binding”.

B4: GST-XtopBP1 (1-348) (other)
chain: MASSENEPFCVKFIKSPENSEYFFKAYEAIKQIQSDESLQLTEEREALLLKEKDKSLYICDPFSGAAFSHLKKLGCRIVGPQVVIFCMENQRRVPRAEYPVYNMAMADVTISCTSLDKETREDVHHYVQIMGGCVYRDLNVSVTHLIAGEVGSKKYLVAASLEKPILLPSWVKELWEKSNQRIIRYSDVNMTEYLCPIFRGCTICVTGLSSLDRKEVQRLTALHGGEYTGQLKMNESTHLIVQEAKGQKYECARKWNVHCISVQWFFDSIEKGFCQDETMYKIEPASTIKSVPDTSTPTGGNSKPNSRALYDVSQISNISTSCVNESAFNSAMASRLDPPADTLENLD
notes: as for B1
Take B4: in assay [2], the binding result was “no binding”.

The values above are taken from patent US20090098111A1 (CALIFORNIA INSTITUTE OF TECHNOLOGY, published 2009).
